Laboratory results from article PMC3749045.

Target: NarXS1 (NarX periplasmic sensor domain, residues 38 - 151) (Escherichia coli K-12) (UniProt P0AFA2)
Test: crystal structure

stoichiometry N: 2
Substance: NarXS1 (NarX periplasmic sensor domain, residues 38 - 151) (from UniProt P0AFA2 38-151) (domain or fragment)
